In patent publication US20150110760A1:

Legend:
B7-H6 (human) = B7-H6 (human) (UniProt Q68D85); experiment: cell-based or functional assay
[1] = molecular target: NKp30 ligands on human dendritic cells (iDCs and mDCs); experiment: cell-based or functional assay

Sequence of UniProt Q68D85 (Q68D85 25-454): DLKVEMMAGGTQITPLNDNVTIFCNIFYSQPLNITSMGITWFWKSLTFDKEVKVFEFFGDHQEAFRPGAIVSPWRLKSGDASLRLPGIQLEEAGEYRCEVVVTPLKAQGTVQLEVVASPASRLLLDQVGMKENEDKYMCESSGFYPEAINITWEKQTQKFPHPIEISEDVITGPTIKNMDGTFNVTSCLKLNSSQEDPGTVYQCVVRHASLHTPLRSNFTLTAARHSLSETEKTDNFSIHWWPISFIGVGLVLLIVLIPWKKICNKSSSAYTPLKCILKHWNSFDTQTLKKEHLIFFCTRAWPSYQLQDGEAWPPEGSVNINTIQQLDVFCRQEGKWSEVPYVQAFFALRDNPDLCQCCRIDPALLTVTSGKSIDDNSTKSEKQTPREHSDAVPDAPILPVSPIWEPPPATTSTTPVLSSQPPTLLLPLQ

NKp30-CD3ζ chimeric receptor
specific lysis of RMA/B7-H6 cells by transduced mouse T cells, 5-h LDH release, E:T 1:1 (B7-H6 (human)): 80%

NKp30-CD28-CD3ζ chimeric receptor
IFN-γ production by transduced human T cells after 24 h coculture with iDCs or mDCs (5:1), ELISA [1]: 200 to 800 pg/mL
specific lysis of RMA/B7-H6 cells by transduced mouse T cells, 5-h LDH release, E:T 1:1 (B7-H6 (human)): 80%
